From publication doi:10.64898/2025.12.23.696152 (bioRxiv, 2025)
Several values for one entry are separate records, joined by “and”; a condition that tells them apart may be missing. Equal values may be shown once.

Columns and labels:
[1] = target: KIF5C(ΔtailΔelbow)-mScarlet-Strep-tag II (human) (UniProt O60282); assay: mass photometry
[2] = target: KIF5C(Δtail)-mScarlet-Strep-tag II (human) (UniProt O60282); assay: mass photometry
[3] = target: Taxol-stabilized microtubules polymerised from pig brain tubulin (pig) (UniProt P02550); assay: TIRF single-molecule motility assay
[4] = target: the molecule itself; assay: mass photometry

KIF5C(ΔtailΔelbow)-mScarlet-Strep-tag II (from UniProt O60282 1-914) (domain or fragment)
percent of particles as dimer [1]: 91% | stoichiometry N [1]: 2

KIF5C(Δtail)-mScarlet-Strep-tag II (from UniProt O60282 1-914) (domain or fragment)
percent of particles as dimer [2]: 93% | stoichiometry N [2]: 2

B1: KIF5C-mScarlet-Strep-tag II (human KIF5C, full length) (natural protein)
chain: MADPAECSIKVMCRFRPLNEAEILRGDKFIPKFKGDETVVIGQGKPYVFDRVLPPNTTQEQVYNACAKQIVKDVLEGYNGTIFAYGQTSSGKTHTMEGKLHDPQLMGIIPRIAHDIFDHIYSMDENLEFHIKVSYFEIYLDKIRDLLDVSKTNLAVHEDKNRVPYVKGCTERFVSSPEEVMDVIDEGKANRHVAVTNMNEHSSRSHSIFLINIKQENVETEKKLSGKLYLVDLAGSEKVSKTGAEGAVLDEAKNINKSLSALGNVISALAEGTKTHVPYRDSKMTRILQDSLGGNCRTTIVICCSPSVFNEAETKSTLMFGQRAKTIKNTVSVNLELTAEEWKKKYEKEKEKNKTLKNVIQHLEMELNRWRNGEAVPEDEQISAKDQKNLEPCDNTPIIDNIAPVVAGISTEEKEKYDEEISSLYRQLDDKDDEINQQSQLAEKLKQQMLDQDELLASTRRDYEKIQEELTRLQIENEAAKDEVKEVLQALEELAVNYDQKSQEVEDKTRANEQLTDELAQKTTTLTTTQRELSQLQELSNHQKKRATEILNLLLKDLGEIGGIIGTNDVKTLADVNGVIEEEFTMARLYISKMKSEVKSLVNRSKQLESAQMDSNRKMNASERELAACQLLISQHEAKIKSLTDYMQNMEQKRRQLEESQDSLSEELAKLRAQEKMHEVSFQDKEKEHLTRLQDAEEMKKALEQQMESHREAHQKQLSRLRDEIEEKQKIIDEIRDLNQKLQLEQEKLSSDYNKLKIEDQEREMKLEKLLLLNDKREQAREDLKGLEETVSRELQTLHNLRKLFVQDLTTRVKKSVELDNDDGGGSAAQKQKISFLENNLEQLTKVHKQLVRDNADLRCELPKLEKRLRATAERVKALESALKEAKENAMRDRKRYQQEVDRIKEAVRAKNMARRAHSAQIAKPIRPGHYPASSPTAVHAIRGGGGSSSNSTHYQK
landing rate (molecules/μm/s) [3]: 0.011 and 0.0047 | stoichiometry N [4]: 2 and 4

B2: KIF5C-Strep-tag II (natural protein)
chain: MADPAECSIKVMCRFRPLNEAEILRGDKFIPKFKGDETVVIGQGKPYVFDRVLPPNTTQEQVYNACAKQIVKDVLEGYNGTIFAYGQTSSGKTHTMEGKLHDPQLMGIIPRIAHDIFDHIYSMDENLEFHIKVSYFEIYLDKIRDLLDVSKTNLAVHEDKNRVPYVKGCTERFVSSPEEVMDVIDEGKANRHVAVTNMNEHSSRSHSIFLINIKQENVETEKKLSGKLYLVDLAGSEKVSKTGAEGAVLDEAKNINKSLSALGNVISALAEGTKTHVPYRDSKMTRILQDSLGGNCRTTIVICCSPSVFNEAETKSTLMFGQRAKTIKNTVSVNLELTAEEWKKKYEKEKEKNKTLKNVIQHLEMELNRWRNGEAVPEDEQISAKDQKNLEPCDNTPIIDNIAPVVAGISTEEKEKYDEEISSLYRQLDDKDDEINQQSQLAEKLKQQMLDQDELLASTRRDYEKIQEELTRLQIENEAAKDEVKEVLQALEELAVNYDQKSQEVEDKTRANEQLTDELAQKTTTLTTTQRELSQLQELSNHQKKRATEILNLLLKDLGEIGGIIGTNDVKTLADVNGVIEEEFTMARLYISKMKSEVKSLVNRSKQLESAQMDSNRKMNASERELAACQLLISQHEAKIKSLTDYMQNMEQKRRQLEESQDSLSEELAKLRAQEKMHEVSFQDKEKEHLTRLQDAEEMKKALEQQMESHREAHQKQLSRLRDEIEEKQKIIDEIRDLNQKLQLEQEKLSSDYNKLKIEDQEREMKLEKLLLLNDKREQAREDLKGLEETVSRELQTLHNLRKLFVQDLTTRVKKSVELDNDDGGGSAAQKQKISFLENNLEQLTKVHKQLVRDNADLRCELPKLEKRLRATAERVKALESALKEAKENAMRDRKRYQQEVDRIKEAVRAKNMARRAHSAQIAKPIRPGHYPASSPTAVHAIRGGGGSSSNSTHYQK
stoichiometry N [4]: 4 and 2

B3: KIF5C(Δelbow)-mScarlet-Strep-tag II (natural protein)
chain: MADPAECSIKVMCRFRPLNEAEILRGDKFIPKFKGDETVVIGQGKPYVFDRVLPPNTTQEQVYNACAKQIVKDVLEGYNGTIFAYGQTSSGKTHTMEGKLHDPQLMGIIPRIAHDIFDHIYSMDENLEFHIKVSYFEIYLDKIRDLLDVSKTNLAVHEDKNRVPYVKGCTERFVSSPEEVMDVIDEGKANRHVAVTNMNEHSSRSHSIFLINIKQENVETEKKLSGKLYLVDLAGSEKVSKTGAEGAVLDEAKNINKSLSALGNVISALAEGTKTHVPYRDSKMTRILQDSLGGNCRTTIVICCSPSVFNEAETKSTLMFGQRAKTIKNTVSVNLELTAEEWKKKYEKEKEKNKTLKNVIQHLEMELNRWRNGEAVPEDEQISAKDQKNLEPCDNTPIIDNIAPVVAGISTEEKEKYDEEISSLYRQLDDKDDEINQQSQLAEKLKQQMLDQDELLASTRRDYEKIQEELTRLQIENEAAKDEVKEVLQALEELAVNYDQKSQEVEDKTRANEQLTDELAQKTTTLTTTQRELSQLQELSNHQKKRATEILNLLLKDLGEIGGIIGTNDVKTLADVNGVIEEEFTMARLYISKMKSEVKSLVNRSKQLESAQMDSNRKMNASERELAACQLLISQHEAKIKSLTDYMQNMEQKRRQLEESQDSLSEELAKLRAQLQDAEEMKKALEQQMESHREAHQKQLSRLRDEIEEKQKIIDEIRDLNQKLQLEQEKLSSDYNKLKIEDQEREMKLEKLLLLNDKREQAREDLKGLEETVSRELQTLHNLRKLFVQDLTTRVKKSVELDNDDGGGSAAQKQKISFLENNLEQLTKVHKQLVRDNADLRCELPKLEKRLRATAERVKALESALKEAKENAMRDRKRYQQEVDRIKEAVRAKNMARRAHSAQIAKPIRPGHYPASSPTAVHAIRGGGGSSSNSTHYQK
stoichiometry N [4]: 4

B4: KIF5C(Δelbow)-Strep-tag II (natural protein)
chain: MADPAECSIKVMCRFRPLNEAEILRGDKFIPKFKGDETVVIGQGKPYVFDRVLPPNTTQEQVYNACAKQIVKDVLEGYNGTIFAYGQTSSGKTHTMEGKLHDPQLMGIIPRIAHDIFDHIYSMDENLEFHIKVSYFEIYLDKIRDLLDVSKTNLAVHEDKNRVPYVKGCTERFVSSPEEVMDVIDEGKANRHVAVTNMNEHSSRSHSIFLINIKQENVETEKKLSGKLYLVDLAGSEKVSKTGAEGAVLDEAKNINKSLSALGNVISALAEGTKTHVPYRDSKMTRILQDSLGGNCRTTIVICCSPSVFNEAETKSTLMFGQRAKTIKNTVSVNLELTAEEWKKKYEKEKEKNKTLKNVIQHLEMELNRWRNGEAVPEDEQISAKDQKNLEPCDNTPIIDNIAPVVAGISTEEKEKYDEEISSLYRQLDDKDDEINQQSQLAEKLKQQMLDQDELLASTRRDYEKIQEELTRLQIENEAAKDEVKEVLQALEELAVNYDQKSQEVEDKTRANEQLTDELAQKTTTLTTTQRELSQLQELSNHQKKRATEILNLLLKDLGEIGGIIGTNDVKTLADVNGVIEEEFTMARLYISKMKSEVKSLVNRSKQLESAQMDSNRKMNASERELAACQLLISQHEAKIKSLTDYMQNMEQKRRQLEESQDSLSEELAKLRAQLQDAEEMKKALEQQMESHREAHQKQLSRLRDEIEEKQKIIDEIRDLNQKLQLEQEKLSSDYNKLKIEDQEREMKLEKLLLLNDKREQAREDLKGLEETVSRELQTLHNLRKLFVQDLTTRVKKSVELDNDDGGGSAAQKQKISFLENNLEQLTKVHKQLVRDNADLRCELPKLEKRLRATAERVKALESALKEAKENAMRDRKRYQQEVDRIKEAVRAKNMARRAHSAQIAKPIRPGHYPASSPTAVHAIRGGGGSSSNSTHYQK
percent of particles as dimer [4]: 13% | percent of particles as tetramer [4]: 62% | stoichiometry N [4]: 2 and 4
